Test results published in patent US20250043302A1, “MUTATED HYDROXYPHENYLPYRUVATE DIOXYGENASE POLYPEPTIDE, AND CODING GENE AND USE THEREOF” (BEIJING DABEINONG BIOTECHNOLOGY CO., LTD., priority 2021, published 2025).

Legend:
[1] = test system: Arabidopsis thaliana T1 plants; assay: Mesotrione tolerance of transgenic Arabidopsis thaliana T1 plants (spray, bleached leaf area grade, damage score); assay type: in vivo; set-up: Scores: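 damage score 0-100 computed as Σ(N×S)/(T×M)×100 over grades 0-3 with higher meaning more damage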; conditions: Table 12; for Classification and statistics of the grade of pesticide damage Grade 0: number of plants at grade 0; for Classification and statistics of the grade of pesticide damage Grade 1: number of plants at grade 1; for Classification and statistics of the grade of pesticide damage Grade 2: number of plants at grade 2; for Classification and statistics of the grade of pesticide damage Grade 3: number of plants at grade 3; for Scores: pesticide damage score
Procedure, shortened: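 Read-out: per-plant damage grade 0–3 from proportion of bleached leaf area at 7 DAT (1 <50%, 2 >50%, 3 100%). Plants were T1 transformants, glufosinate-selected, plus wild-type CK, sprayed 18 days post-sowing. Rates: topramezone 25–200, isoxaflutole 35–280, mesotrione 52.5–420 g ai/ha.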

[2] = test system: Arabidopsis thaliana T1 plants; assay: Isoxaflutole tolerance of transgenic Arabidopsis thaliana T1 plants (spray, bleached leaf area grade, damage score); assay type: in vivo; conditions: Table 11; for Classification and statistics of the grade of pesticide damage Grade 0: number of plants at grade 0; for Classification and statistics of the grade of pesticide damage Grade 1: number of plants at grade 1; for Classification and statistics of the grade of pesticide damage Grade 2: number of plants at grade 2; for Classification and statistics of the grade of pesticide damage Grade 3: number of plants at grade 3; for Scores: pesticide damage score;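 for Scores: Weighted damage index from 0 to 100 where higher means more damage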
Excerpt: T1 transformants were initially selected from the untransformed seeds using a glufosinate selection scheme. The Arabidopsis thaliana T1 plants (AsHPPD-02) into which the AsHPPD-02 nucleotide sequence was introduced, the Arabidopsis thaliana T1 plants (AsHPPDm-F372A-02) into which the AsHPPDm-F372A-02 nucleotide sequence was introduced, the Arabidopsis thaliana T1 plants (AsHPPDm-F383W-02) into which the AsHPPDm-F383W-02 nucleotide sequence was introduced, the Arabidopsis thaliana T1 plants (AsHPPDm-F372A-F383W-02) into which the AsHPPDm-F372A-F383W-02 nucleotide sequence was introduced, the Arabidopsis thaliana T1 plants (DBN11726N) into which the control recombinant expression vector DBN11726N was introduced, and the wild-type Arabidopsis thaliana plants (CK) (18 days after sowing) were sprayed respectively with topramezone at three concentrations (100 g ai/ha (four-fold field concentration, 4×), 200 g ai/ha (eight-fold field concentration, 8×), and 0 g ai/ha (water, 0×)), isoxaflutole at three concentrations (140 g ai/ha (two-fold field concentration, 2×), 280 g ai/ha (four-fold field concentration, 4×), and 0 g ai/ha (water, 0×)), and mesotrione at three concentrations (210 g ai/ha (two-fold field concentration, […]), 420 g ai/ha (four-fold field concentration, 4×), and 0 g ai/ha (water, 0×)), to determine the tolerance of Arabidopsis thaliana to the herbicides. The degree of damage caused by the herbicide was measured for each plant according to the proportion of bleached leaf area (the proportion of bleached leaf area=bleached leaf area/total leaf area×100%) 7 days after spraying (7 DAT): the case where there is basically no bleached phenotype is defined as grade 0, the case where the proportion of bleached leaf area is less than 50% is defined as grade 1, the case where the proportion of bleached leaf area is more than 50% is defined as grade 2, and the case where the proportion of bleached leaf area is 100% grade is defined as grade 3.
According to the method as described above in point 6 of Example 1, the aforementioned Arabidopsis thaliana T1 plants and wild-type Arabidopsis thaliana plants (CK) (18 days after sowing) were sprayed respectively with topramezone at three concentrations (25 g ai/ha (one-fold field concentration, 1×). 100 g ai/ha (four-fold field concentration, 4×), and 0 g ai/ha (water, 0×)), isoxaflutole at three concentrations (35 g ai/ha (half-fold field concentration, 0.5×). 70 g ai/ha (one-fold field concentration, 1×), and 0 g ai/ha (water, 0×)), and mesotrione at three concentrations (52.5 g ai/ha (half-fold field concentration, 0.5×), 105 g ai/ha (one-fold field concentration, 1×), and 0 g ai/ha (water, 0×)) to detect the tolerance of Arabidopsis thaliana to the herbicides.
According to the method as described above in point 6 of Example 1, the aforementioned Arabidopsis thaliana T1 plants and wild-type Arabidopsis thaliana plants (CK) (18 days after sowing) were sprayed with topramezone at three different concentrations (i.e., 100 g ai/ha (four-fold field concentration, 4×), 200 g ai/ha (eight-fold field concentration, 8×) and 0 g ai/ha (water, 0×)), isoxaflutole at three different concentrations (i.e., 140 g ai/ha (two-fold field concentration, 2×), 280 g ai/ha (four-fold field concentration, 4×) and 0 g ai/ha (water, 0×)), and mesotrione at three different concentrations (i.e., 210 g ai/ha (two-fold field concentration, 2×), 420 g ai/ha (four-fold field concentration, 4×) and 0 g ai/ha (water, 0×)) respectively to detect the herbicide tolerance of Arabidopsis thaliana. […]

B1: AsHPPDm-A111T-F372A-02: nucleotide sequence encoding Avena sativa HPPD with A111T+F372A; vector DBN11781 (nucleic acid)
DNA: ATGCCACCTACTCCAGCTACAGCTACTGGTGCTGCTGCTGCTGCCGTTACTCCTGAGCACGCTGCCAGGTCATTCCCCAGGGTGGTTCGCGTGAACCCCAGATCTGATAGGTTCCCAGTTCTGAGCTTCCACCATGTTGAGCTGTGGTGCGCTGATGCTGCTTCTGCTGCTGGCAGGTTCTCTTTCGCTCTTGGTGCTCCACTCGCTGCTAGATCTGATCTGTCTACAGGAAATAGCGCTCATGCCTCACTCCTGCTTCGCTCAGGTGCTTTGGCCTTCCTCTTCACCGCTCCATATGCTCCCCCACCTCAGGAGGCTGCTACTGCTGCTACTACAGCCTCCATTCCAAGCTTCTCAGCTGATGCCGCTAGAACCTTCGCTGCTGCTCATGGACTTGCCGTGAGGTCTGTTGGTGTTCGCGTGGCTGATGCTGCTGAGGCTTTCAGAGTTTCCGTTGCCGGCGGAGCTAGGCCAGCTTTCGCTCCTGCTGATTTGGGACATGGTTTCGGCCTGGCTGAGGTTGAGCTTTACGGTGACGTGGTTCTCCGCTTCGTGTCTTACCCAGATGAGACTGACCTGCCTTTCCTTCCCGGCTTCGAGAGAGTTTCCTCTCCTGGTGCCGTGGATTACGGCCTGACAAGGTTCGACCACGTGGTTGGAAACGTTCCCGAGATGGCTCCAGTGATCGATTACATGAAGGGCTTCCTTGGATTCCATGAGTTCGCCGAGTTCACTGCTGAGGACGTGGGAACCACTGAGTCCGGTTTGAACTCTGTGGTTCTCGCCAACAATTCTGAGGCTGTTTTGCTCCCTCTGAATGAGCCTGTGCATGGAACCAAGAGGAGAAGCCAGATTCAAACTTACCTGGAGTACCACGGTGGCCCTGGAGTTCAGCATATCGCCCTTGCTTCTAATGATGTGTTGCGCACACTCAGAGAGATGCGCGCCAGAACCCCCATGGGAGGTTTCGAGTTCATGGCCCCACCACAGGCTAAGTACTACGAGGGCGTTAGAAGGATTGCTGGAGACGTGTTGAGCGAGGAGCAGATCAAGGAGTGCCAAGAGCTGGGTGTTCTTGTGGATAGGGATGACCAGGGCGTTCTGCTTCAAATTGCCACTAAGCCAGTGGGCGACCGCCCTACATTCTTCCTTGAGATGATTCAAAGAATCGGCTGCATGGAGAAGGATGAGGTTGGACAGGAGTACCAAAAGGGCGGATGCGGTGGCTTCGGAAAGGGTAACTTCAGCGAGTTGTTCAAGTCAATCGAGGACTACGAGAAGAGCCTCGAGGTGAAGCAGTCAGTGGTTGCCCAAAAGTCCTGA
modifications: AsHPPDm-A111T-F372A-02 Nucleotide Sequence
notes: vector DBN11781
- Resistance evaluation ([1]; mesotrione 210 g ai/ha (2×)): Moderately
- Classification and statistics of the grade of pesticide damage Grade 0 ([1]; mesotrione 210 g ai/ha (2×)): 5
- Classification and statistics of the grade of pesticide damage Grade 1 ([1]; mesotrione 210 g ai/ha (2×)): 8
- Classification and statistics of the grade of pesticide damage Grade 2 ([1]; mesotrione 210 g ai/ha (2×)): 3
- Classification and statistics of the grade of pesticide damage Grade 3 ([1]; mesotrione 210 g ai/ha (2×)): 0
- Scores ([1]; mesotrione 210 g ai/ha (2×)): 29
- Resistance evaluation ([1]; mesotrione 420 g ai/ha (4×)): Poorly resistant
- Classification and statistics of the grade of pesticide damage Grade 0 ([1]; mesotrione 420 g ai/ha (4×)): 0
- Classification and statistics of the grade of pesticide damage Grade 1 ([1]; mesotrione 420 g ai/ha (4×)): 8
- Classification and statistics of the grade of pesticide damage Grade 2 ([1]; mesotrione 420 g ai/ha (4×)): 7
- Classification and statistics of the grade of pesticide damage Grade 3 ([1]; mesotrione 420 g ai/ha (4×)): 1
- Scores ([1]; mesotrione 420 g ai/ha (4×)): 52
- Resistance evaluation ([2]; isoxaflutole 140 g ai/ha (2×)): Moderately
- Classification and statistics of the grade of pesticide damage Grade 0 ([2]; isoxaflutole 140 g ai/ha (2×)): 5
- Classification and statistics of the grade of pesticide damage Grade 1 ([2]; isoxaflutole 140 g ai/ha (2×)): 8
- Classification and statistics of the grade of pesticide damage Grade 2 ([2]; isoxaflutole 140 g ai/ha (2×)): 1
- Classification and statistics of the grade of pesticide damage Grade 3 ([2]; isoxaflutole 140 g ai/ha (2×)): 2
- Scores ([2]; isoxaflutole 140 g ai/ha (2×)): 33
- Resistance evaluation ([2]; isoxaflutole 280 g ai/ha (4×)): Poorly resistant
- Classification and statistics of the grade of pesticide damage Grade 0 ([2]; isoxaflutole 280 g ai/ha (4×)): 0
- Classification and statistics of the grade of pesticide damage Grade 1 ([2]; isoxaflutole 280 g ai/ha (4×)): 0
- Classification and statistics of the grade of pesticide damage Grade 2 ([2]; isoxaflutole 280 g ai/ha (4×)): 16
- Classification and statistics of the grade of pesticide damage Grade 3 ([2]; isoxaflutole 280 g ai/ha (4×)): 0
- Scores ([2]; isoxaflutole 280 g ai/ha (4×)): 67
